Test results: the supplement of paper PMC11502859
Where “and” joins values, the source holds several entries; their conditions need not be identical. Equal values may be shown once.

System: HEK293T
Test: median enrichment of reporter reads in eGFP-reduced (low/intermediate) vs eGFP-high sorted cells (eGFP-extension fusion abundance) (ratio); higher = stronger loss of eGFP-fusion protein abundance (more destabilising extension)
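Further: lentiviral eGFP-IRES-mCherry reporter pool sorted by FACS 96 h post-transduction, gated on mCherry-high cells, Illumina read counts normalized per million, median across four biological replicates.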

Substance	median enrichment
SQL [AMBN]	0.898
RLEPV [TMEM87B]	0.479
VAANTPASGLLVAAPGDTPAKPTRWRGPPWSLATLPASAQGPLPSPGHLLCRRHSSQKPLSQKRLVFKKSRFFAPEVSFRGRM [AP1M1]	4.38
YIFYSHSVVQSSALGIYLCSQRSNSHLLYCLCLKEFESFLIFIIHLRTRDPCLAVWSKADYAAWRQDSDRASERAKSCQKETE [GABRA1]	10.4
WGPDSELEGGEIFKEKRGKWEGCKRGE [SOX2]	29.7
RAPWWERL [HTT]	1.54
LPPLSPECNKHQIPCVK [POLR2I]	2.23
GTSPAPLRTPPRLDGWAHASHWGPGSRRWAPTLGPRGAANHTGLRPSYPAPSPSTSTFTSPPFHFFLYVFFLLETDSIHIEYN [JUNB]	4.58
RCAGSFLPSVKGQRCADLIFQLTTCFKRKIAHEKCLLAFQSIFEITG [FAM104A]	5.07
LGLLPLGPLTLSGWWTTKYNPVYNLKIYFTFVLLYLFIKG [SMAD4]	5.85
YPVGGWRVCHSNLIESRKTEGNAAAN [OR52E8]	4
YHAPRLEGRNSRLQNRHEMVWPCDYTL [TRMT44]	1.98
LVGWLLVFVSFLSCLLLKGNQK [MYCT1]	9.75
QTVKEGVFVWTR [DSC1]	2.42
SSFIGLNTVCFYQSGHWHCLLFYNHVDTSISKENLSTR [RARS]	8.65
WSSVVE [TMEM17]	0.673
QFPTSELGNCTHSNPACSAS [MAS1L]	0.296
WGSAQISVVRKPVPLGFSPHTTACRTLEWTQSSH [CA6]	7.98
YWCGK [NME7]	2.52
YGAPTFDFYLSSSWIF [HMGA2]	9.36
WAV [GBA2]	0.997
CSWSRG [MLIP]	6.67
SGLDSTRALENEMTV [APCS]	0.582
QISTNKSKTNSRIPDCPIPI [PTCHD3]	2.49
YDFQKTLILFLKL [PRDM1]	8.51

Substance	median enrichment
ACKNWFSSLSHFVIHL [Degron CL1]	8.24
QPPAILPHPPPSPPVSTWSALPHPPPTELGCITFFHLKERSRF [MROH5]	4.47
SGNRDAFPCSSLQPPLPYKIWSNS [ADH1B]	2.16
KNAPSDLASKKSCSVPCVLSFKGIFRINSDLEDSSVLQRLAFIFIVIMEMLSFILSYIRKKGVMQLISISLGNALVLFSSFLV [CREB5]	15.5
ADLTPAQPPPPTSHSGLVLCLLFRTPLCPPKRQKKKKKKKSKKTSEKSAAKKWMSCNFSRDGAGGVCVPTGPGGPLRGGHAAR [PITX1]	10
PPPPPP [Pro06]	0.323
SFHLLKPAYFRTLRLTVFSLLMMSSC [PIK3AP1]	11.1
SRFCHVNVSLSGLQLRRKRRKT [SMIM11A]	5.41
SSSS [Ser04]	0.471
GWGLQGRGLAPFSLSY [NR1H4]	13.8
CYSFQLLPLCLPG [TRIM55]	7.06
YCLKGFY [GNL2]	8.39
QLLVPPSLLVIRFPRLTP [PITRM1]	9.11
SGLPLPSLLEIVNPAVCAGLIVSVL [FBXO25]	6.93
WGWTPVPAGRSPDMWTCSFVPTVHAGLRLEPRGAGQFTGSCRTRCQPLRGGTADARGFAHPGPSVPRAK [ITPKA]	6.95
LVAPPHWTHGLAHASPLLPLPAIDNVAGTSASPLQPSNFPGTLLSAPEEGAVVSCCLWAPASSAVLGSVLLASVNNKATVCSG [MCM5]	4.44
SAVKFF [INTS8]	0.917
LAYLLVFVLKCDLRFNV [TMEM70]	9.39
WRRLVSTHSGAFLISSSHTNHPSLPIVSSSQ [CYP19A1]	12.8
YNIRKKATSMVINGRKAGELDSAVLLTGELWSSAPVYGPCRLVGWQMLA [DPPA4]	10.4
RRRRRRRR [Arg08]	1.49
RPGAQPCAAEDSRDWRRPRPATAGARGHLPGLLTLSPHWEWAPRGRASAVAASAPGRAGPPRGPVLVFCRRTQPPPIPDSSLG [TMUB1]	6.53
YMSF [PPP1CC]	1.47
LKNCLEELY [EBF1]	2.5
SVPLSHPYL [KLK2]	0.37

Substance	median enrichment
LTFQDEWFILSNLLLTEQSSEPFNFKLHQLCAEPWCKVLSHSFFLSVEFGAIVSGT [ATAD2B]	6.97
TMEPPGGRQKKR [Degron FEM1C]	0.496
LFVKLCLIM [GPR112]	13.7
WEDPPEE [IGF1]	1.04
WKHFLPKVSGLRYTSIQQCIVIKILFQS [OR2L3]	7.3
KTIQKRNQFFPQSIQCLEY [HEATR3]	5.13
EVDV [PRKCB]	0.313
LSGLCT [LCE1A]	0.479
YWENPLLVHLKTPNSTIICQEIKRTTP [PCP4]	13.6
GCM [BET1]	0.417
HHHHHHHHH [His09]	0.435
WNFENKI [RNASEH2B]	0.528
WETA [FAXDC2]	0.459
RTSRPTTLRKIEW [HCAR1]	1.94
QWPSDDS [COL15A1]	0.307
YLKNMYPL [ERCC5]	7.72
HFWGVTDFVHGFKVYFYGLVIAEFLFWGEGKGASPLLLALRPRRLLCAANCIYCDALVRAPLPTSPSQLWPQPLSLCCVEWTP [TSPYL2]	8.4
LSPLFLPTLQGPHSPYPSVQCTREETLCL [IDH3B]	7.06
WRKRDAGTHPCLREVWLSPNPPHRPPFTKHLSCLMCPIELHSVRLDAVISGTYVTMFAEAPGVVGRGGRCG [RNF144A]	6.33
QQQ [Gln03]	0.325
SGTAVPACSPHLGRGSLAAFSLRSRST [AGAP1]	8.94
LKPPSAGDPDKMAP [KRTAP1-1]	0.285
IIIII [Ile05]	8.97
APRAPRQRSRDG [Degron KLHDC3]	10.8
LTLTV [ABCB1]	1.67

Substance	median enrichment
EKTVCKRSGVQEITSFDRSMYRKFKFCLRLHKLGAFLRCFSCSNLFVS [SRSF3]	10
RDSSACPPWGPCCRPGGQSRWERHSQGQGKEGTHTHTHTHTHTHTYILLSLPKPIRQVNGQCLLGPWTHFLLGEAAS [GLP1R]	3.35
YGIRLSCFKNVRESHILLMANCYINGNT [CBWD1]	1.39
QCDSQCNNIKISFYIII [ASNSD1]	4.36
LAPLGLEFATGRILQRQVVPGPLLHPFSRRPCQRLHPVVNLVWRQRLRGWTSIVGQGLTLQGFCSWLWTPENPLLPSPNTRFL [FAM110A]	6.38
GTHNLHLSGYYYRFLHAQSRRIWTQMVTITSWPTNKKVLTML [ZNF717]	7.8
CGALRPS [PNKD]	0.539
HHHHHHHH [His08]	0.421
SGTRKEID [PCDHB16]	0.57
YEHLDQVEKGTLSLVCGKQHLQEI [XKR6]	0.3
GGLLALTLQPTLAVWPSPGSFPAPLPLFPVLLNSPSWRVQALGMGGTRPHSFHRALRPDTADQPHSAQEAASGVGAQRGTAAS [BAP1]	5.39
LRGPSPPPMAGG [Degron KLHDC2]	5.1
WCPGVCCLAHMSLL [CLSTN2]	5.25
LLLLL [Leu05]	4.74
WPG [KDM8]	0.882
YTPLFVVHYFD [KCNQ2]	7.27
YVD [GLUL]	0.387
QIRI [TADA1]	0.507
SVGSPSKPRPLKPPLAAPRSSHYLCPEGGKSFPAHPPR [BCL7C]	1.39
EFILMKENVTKEMHEM [MYH4]	2.79
SLCC [POLQ]	0.62
LVLRLRATPLPSACSFPGIFVSF [EPS15L1]	18
LCFAEIFCSLRISETYL [SIM1]	7.43
YSQTNTPYVSVNPCYLSRVCYFPSHRPNPWSPRGSHTTAITQCRGHA [HIP1]	2.78
YLTLPIS [OR5AS1]	15.4

Substance	median enrichment
LEKAIWDLITLNRHANTVCVRALCIQ [PCDH9]	9.37
LVRIFNIFQKCIYIVLLCFFHCTL [SLC39A12]	9.98
YKKRCCLGLVGGACFS [HIGD1A]	3.33
PTASSLQVQLKPLSSGGRHVERAGRPTAAENRAGTGSSCSAFPSFGDAGSAAPKHLPAPHSTVSEDSSLLPVKLPCAGMAWTC [CDC14B]	2.89
QRLQCLLRRKIKFTSSKVTLEDRALGMSFFF [OR2C3]	5.9
KLQC [OR4C6]	0.547
SGLVCRTAAGAPPGQIIAASDCGLYLFIPSDFFNVRYL [FBLN1]	30.5
KCYRLNDSASRLPKSKALFRAAHSFPQKSS [HIST1H4E]	8.92
LRRIQICVCVCVCVCVCVCVCVSLCLCIG [KIFC1]	24.3
WKDN [PIK3CA]	0.482
SPELTAQSVDRASVRRHRERPGGSLSMDSQTAGEHLGQPPEGPLLDPRENLLALAVILE [ICOSLG]	2.2
FFF [Phe03]	5.17
RAAQKETTKPLTVVTLDKETPVA [CAPRIN2]	45.5
WWWWWWW [Trp07]	3.21
WDSSPSPSDQGPSSSKPEAELPAHPCRPPKPTPPHPV [ARL8A]	1.02
ECDKVQPSDLIIHKIIYT [ZNF679]	8.95
QFKELKIHMHEP [WDR41]	1.3
FLELKHPRMPLHVFHSPHLQTSLLFLTRPESKLPSLGNSGEGVSCTTYHTPSHPVSDFGMDSGKLGPSLNRVMYLNVCYFQPP [HSPA1L]	6.57
TTTTTTTTT [Thr09]	0.552
WLQNY [IFNAR2]	10.5
PCRHHPPPSPCPQPVCPVPCPPQAWWWQWRRLRRLKRLTGRGAFCLAHCPDDPPAPSRLQQQSPRRTGWTEEKEVDCCTHTER [SOX10]	3.84
GTSLALLTHPRNTISGTRAAPRTRGYSRHNLIERAPAALTSTAFDTYASLVLLLSSESSCAHAFSRMGSPLAVAASVLALASS [KIAA1522]	6.48
YLSGLSVL [MCOLN3]	19
YTTMYFNKDHQC [LRP2BP]	1.43 and 3.14
